Reference: US20210009685A1 (ALTEOGEN, published 2021)

Legend:
[1] = target: T1, Folate receptor alpha (FOLR1) (human, UniProt P15328 25-234, limits assumed); test: screening ELISA of panned phage library clones on FOLR1
T1 construct: Antigen printed simply as FOLR1 for the panning, the clone ELISA and the SPR chip; also called human FOLR1; folate receptor-α

[2] = target: T2, FOLR1-Fc (UniProt P15328 25-234, limits assumed); test: ELISA, FOLR1-Fc coated, antibody titrated
T2 construct: also called FOLR1 (ELISA coating); not shown: Fc part
Procedure: (§1) For the purpose of comparing the binding affinities of the primarily selected clones with each other, ELISA was performed at different clone concentrations in the following manner. 25 μL of FOLR1 was added to each well of a 96-well plate at a concentration of 1 μg/mL, coated on the plate at room temperature for 1 hour, and then blocked with 180 μL of 3% skim milk at room temperature for 1 hour. During blocking, samples to be used as primary antibodies were prepared. As primary antibodies, samples selected by screening were used. The samples were diluted to a concentration of 0.1 to 100 nM (0, 0.1, 0.3, 1, 3, 10, 30, and 100 nM) and cold-stored until use. After blocking, 3% skim milk was removed, and 25 μL of the primary antibody was added to each well and allowed to react at room temperature for 1 hour or more. After completion of the reaction, each well was washed three times with PBS-Tween20 (0.1%) buffer. As a secondary antibody, HA-HRP was diluted 3,000-fold with 3% skim milk, and 25 μL of the dilution was added to each well and allowed to react at room temperature for 1 hour or more. After completion of the reaction, each well was washed three times with PBS-Tween20 (0.1%), and 25 μL of substrate TMB was added to each well to confirm color development. After about 5 minutes, 25 μL of 1 M H₂SO₄ was added to each well to stop the reaction, and the absorbance at a wavelength of 450 nm was measured. From the measurement results, the EC (Effector concentration) value was calculated using the GraphPad Prism 7 program.
(§2) The measured values are obtained in different experiments for comparison with the parent antibody.

[3] = target: T2, FOLR1-Fc; test: ELISA, FOLR1-Fc coated
Procedure: as §1, §2

T1 sequence (P15328 25-234 limits assumed): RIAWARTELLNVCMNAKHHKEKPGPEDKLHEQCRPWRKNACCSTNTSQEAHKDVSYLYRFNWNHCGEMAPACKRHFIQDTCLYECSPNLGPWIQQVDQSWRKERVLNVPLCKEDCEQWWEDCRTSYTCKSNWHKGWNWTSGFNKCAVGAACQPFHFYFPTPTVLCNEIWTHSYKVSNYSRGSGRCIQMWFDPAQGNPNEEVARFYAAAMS
T2 sequence (P15328 25-234 limits assumed): as above

| Binder | binding result [1] | EC50 [2] | Relative Potency [3] |
| --- | --- | --- | --- |
| CDR-L1 library clone C7 (Fab, V domains shown, Fab clone from the phage library on the parent Fab template; Only the CDR-L1 is printed) VH: EVQLVESGGGVVQPGRSLRLSCSASGFTFSGYGLSWVRQAPGKGLEWVAMISSGGSYTYYADSVKGRFAISRDNAKNTLFLQMDSLRPEDTGVYFCARHGDDPAWFAYWGQGTPVTVSS VL: DIQLTQSPSSLSASVGDRVTITCSASSSLSSSYLHWYQQKPGKAPKPWIYGTSNLASGVPSRFSGSGSGTDYTFTISSLQPEDIATYYCQQWSSYPYMYTFGQGTKVEIK | binds |  |  |
| CDR-L1 library clone D5 (Fab, V domains shown, Fab clone from the phage library on the parent Fab template; Only the CDR-L1 is printed) VH: EVQLVESGGGVVQPGRSLRLSCSASGFTFSGYGLSWVRQAPGKGLEWVAMISSGGSYTYYADSVKGRFAISRDNAKNTLFLQMDSLRPEDTGVYFCARHGDDPAWFAYWGQGTPVTVSS VL: DIQLTQSPSSLSASVGDRVTITCRVSSGISSNNLHWYQQKPGKAPKPWIYGTSNLASGVPSRFSGSGSGTDYTFTISSLQPEDIATYYCQQWSSYPYMYTFGQGTKVEIK | binds |  |  |
| CDR-L1 library clone D7 (Fab, V domains shown, Fab clone from the phage library on the parent Fab template; Only the CDR-L1 is printed) VH: EVQLVESGGGVVQPGRSLRLSCSASGFTFSGYGLSWVRQAPGKGLEWVAMISSGGSYTYYADSVKGRFAISRDNAKNTLFLQMDSLRPEDTGVYFCARHGDDPAWFAYWGQGTPVTVSS VL: DIQLTQSPSSLSASVGDRVTITCRASSGLSSNNLHWYQQKPGKAPKPWIYGTSNLASGVPSRFSGSGSGTDYTFTISSLQPEDIATYYCQQWSSYPYMYTFGQGTKVEIK | binds |  |  |
| CDR-L1 library clone F3 (Fab, V domains shown, Fab clone from the phage library on the parent Fab template; Only the CDR-L1 is printed) VH: EVQLVESGGGVVQPGRSLRLSCSASGFTFSGYGLSWVRQAPGKGLEWVAMISSGGSYTYYADSVKGRFAISRDNAKNTLFLQMDSLRPEDTGVYFCARHGDDPAWFAYWGQGTPVTVSS VL: DIQLTQSPSSLSASVGDRVTITCRASSGVSSNNLHWYQQKPGKAPKPWIYGTSNLASGVPSRFSGSGSGTDYTFTISSLQPEDIATYYCQQWSSYPYMYTFGQGTKVEIK | binds |  |  |
| CDR-L1 library clone H1 (Fab, V domains shown, Fab clone from the phage library on the parent Fab template; Only the CDR-L1 is printed) VH: EVQLVESGGGVVQPGRSLRLSCSASGFTFSGYGLSWVRQAPGKGLEWVAMISSGGSYTYYADSVKGRFAISRDNAKNTLFLQMDSLRPEDTGVYFCARHGDDPAWFAYWGQGTPVTVSS VL: DIQLTQSPSSLSASVGDRVTITCSASSSISSSYLHWYQQKPGKAPKPWIYGTSNLASGVPSRFSGSGSGTDYTFTISSLQPEDIATYYCQQWSSYPYMYTFGQGTKVEIK | binds |  |  |
| CDR-L1 library clone H7 (Fab, V domains shown, Fab clone from the phage library on the parent Fab template; Only the CDR-L1 is printed) VH: EVQLVESGGGVVQPGRSLRLSCSASGFTFSGYGLSWVRQAPGKGLEWVAMISSGGSYTYYADSVKGRFAISRDNAKNTLFLQMDSLRPEDTGVYFCARHGDDPAWFAYWGQGTPVTVSS VL: DIQLTQSPSSLSASVGDRVTITCSVSSSLSSSNLHWYQQKPGKAPKPWIYGTSNLASGVPSRFSGSGSGTDYTFTISSLQPEDIATYYCQQWSSYPYMYTFGQGTKVEIK | binds |  |  |
| CDR-L2 library clone B1 (Fab, V domains shown, Fab clone from the phage library on the parent Fab template; Only the CDR-L2 is printed) VH: EVQLVESGGGVVQPGRSLRLSCSASGFTFSGYGLSWVRQAPGKGLEWVAMISSGGSYTYYADSVKGRFAISRDNAKNTLFLQMDSLRPEDTGVYFCARHGDDPAWFAYWGQGTPVTVSS VL: DIQLTQSPSSLSASVGDRVTITCSVSSSISSNNLHWYQQKPGKAPKPWIYATSSRATGVPSRFSGSGSGTDYTFTISSLQPEDIATYYCQQWSSYPYMYTFGQGTKVEIK | binds |  |  |
| CDR-L2 library clone C3 (Fab, V domains shown, Fab clone from the phage library on the parent Fab template; Only the CDR-L2 is printed) VH: EVQLVESGGGVVQPGRSLRLSCSASGFTFSGYGLSWVRQAPGKGLEWVAMISSGGSYTYYADSVKGRFAISRDNAKNTLFLQMDSLRPEDTGVYFCARHGDDPAWFAYWGQGTPVTVSS VL: DIQLTQSPSSLSASVGDRVTITCSVSSSISSNNLHWYQQKPGKAPKPWIYATSNRESGVPSRFSGSGSGTDYTFTISSLQPEDIATYYCQQWSSYPYMYTFGQGTKVEIK | binds |  |  |
| CDR-L2 library clone C10 (Fab, V domains shown, Fab clone from the phage library on the parent Fab template; Only the CDR-L2 is printed) VH: EVQLVESGGGVVQPGRSLRLSCSASGFTFSGYGLSWVRQAPGKGLEWVAMISSGGSYTYYADSVKGRFAISRDNAKNTLFLQMDSLRPEDTGVYFCARHGDDPAWFAYWGQGTPVTVSS VL: DIQLTQSPSSLSASVGDRVTITCSVSSSISSNNLHWYQQKPGKAPKPWIYATSSLATGVPSRFSGSGSGTDYTFTISSLQPEDIATYYCQQWSSYPYMYTFGQGTKVEIK | binds |  |  |
| CDR-L2 library clone G3 (Fab, V domains shown, Fab clone from the phage library on the parent Fab template; Only the CDR-L2 is printed) VH: EVQLVESGGGVVQPGRSLRLSCSASGFTFSGYGLSWVRQAPGKGLEWVAMISSGGSYTYYADSVKGRFAISRDNAKNTLFLQMDSLRPEDTGVYFCARHGDDPAWFAYWGQGTPVTVSS VL: DIQLTQSPSSLSASVGDRVTITCSVSSSISSNNLHWYQQKPGKAPKPWIYATSNLASGVPSRFSGSGSGTDYTFTISSLQPEDIATYYCQQWSSYPYMYTFGQGTKVEIK | binds |  |  |
| CDR-L2 library clone H2 (Fab, V domains shown, Fab clone from the phage library on the parent Fab template; Only the CDR-L2 is printed) VH: EVQLVESGGGVVQPGRSLRLSCSASGFTFSGYGLSWVRQAPGKGLEWVAMISSGGSYTYYADSVKGRFAISRDNAKNTLFLQMDSLRPEDTGVYFCARHGDDPAWFAYWGQGTPVTVSS VL: DIQLTQSPSSLSASVGDRVTITCSVSSSISSNNLHWYQQKPGKAPKPWIYTASSRASGVPSRFSGSGSGTDYTFTISSLQPEDIATYYCQQWSSYPYMYTFGQGTKVEIK | binds |  |  |
| CDR-L2 library clones E9, G6 (Fab, V domains shown, Fab clones from the phage library on the parent Fab template; Only the CDR-L2 is printed) VH: EVQLVESGGGVVQPGRSLRLSCSASGFTFSGYGLSWVRQAPGKGLEWVAMISSGGSYTYYADSVKGRFAISRDNAKNTLFLQMDSLRPEDTGVYFCARHGDDPAWFAYWGQGTPVTVSS VL: DIQLTQSPSSLSASVGDRVTITCSVSSSISSNNLHWYQQKPGKAPKPWIYGASSLATGVPSRFSGSGSGTDYTFTISSLQPEDIATYYCQQWSSYPYMYTFGQGTKVEIK | binds |  |  |
| Modified antibody vAb2 (antibody, V domains shown, Carries modified CDR-L1 and CDR-L2) VH: EVQLVESGGGVVQPGRSLRLSCSASGFTFSGYGLSWVRQAPGKGLEWVAMISSGGSYTYYADSVKGRFAISRDNAKNTLFLQMDSLRPEDTGVYFCARHGDDPAWFAYWGQGTPVTVSS VL: DIQLTQSPSSLSASVGDRVTITCSASSGLSSSYLHWYQQKPGKAPKPWIYGTSSRASGVPSRFSGSGSGTDYTFTISSLQPEDIATYYCQQWSSYPYMYTFGQGTKVEIK |  | 3.94 ng/mL | 3.04 fold against parent antibody |
| Modified antibody vAb3 (antibody, V domains shown, Carries modified CDR-L1) VH: EVQLVESGGGVVQPGRSLRLSCSASGFTFSGYGLSWVRQAPGKGLEWVAMISSGGSYTYYADSVKGRFAISRDNAKNTLFLQMDSLRPEDTGVYFCARHGDDPAWFAYWGQGTPVTVSS VL: DIQLTQSPSSLSASVGDRVTITCSASSGLSSSYLHWYQQKPGKAPKPWIYGTSNLASGVPSRFSGSGSGTDYTFTISSLQPEDIATYYCQQWSSYPYMYTFGQGTKVEIK |  | 0.77 ng/mL | 3.99 fold against parent antibody |
| Modified antibody vAb4 (antibody, V domains shown, Carries modified CDR-L2) VH: EVQLVESGGGVVQPGRSLRLSCSASGFTFSGYGLSWVRQAPGKGLEWVAMISSGGSYTYYADSVKGRFAISRDNAKNTLFLQMDSLRPEDTGVYFCARHGDDPAWFAYWGQGTPVTVSS VL: DIQLTQSPSSLSASVGDRVTITCSVSSSISSNNLHWYQQKPGKAPKPWIYGTSSRASGVPSRFSGSGSGTDYTFTISSLQPEDIATYYCQQWSSYPYMYTFGQGTKVEIK |  | 1.59 ng/mL | 1.94 fold against parent antibody |
| Modified antibody vAb5 (antibody, V domains shown, Carries modified CDR-H3) VH: EVQLVESGGGVVQPGRSLRLSCSASGFTFSGYGLSWVRQAPGKGLEWVAMISSGGSYTYYADSVKGRFAISRDNAKNTLFLQMDSLRPEDTGVYFCARHGDDVAWFAYWGQGTPVTVSS VL: DIQLTQSPSSLSASVGDRVTITCSVSSSISSNNLHWYQQKPGKAPKPWIYGTSNLASGVPSRFSGSGSGTDYTFTISSLQPEDIATYYCQQWSSYPYMYTFGQGTKVEIK |  | 2.17 ng/mL | 1.42 fold against parent antibody |
